# From the nanobody polyreactivity screen of Harvey et al. (2022)
# Assay: yeast display, Sf9 membrane polyspecificity reagent, FACS + sequencing; frameworks hold sequencing errors
# Summary of the method: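 Nanobodies came from a synthetic yeast display library in Saccharomyces cerevisiae BJ5465, induced with galactose for 36–48 hours and stained for 1 hour at 4 °C with 10% biotinylated, detergent-solubilized Sf9 membrane reagent. Cells were enriched on streptavidin microbeads and then FACS-sorted, with low and high (top ~1%) gates set on anti-HA fluorescence for expression and streptavidin fluorescence for reagent binding. Each polyreactivity label reflects the gate a clone came from. Genes were amplified by colony PCR, sequenced by MiSeq 2 × 250 and filtered by CDR length.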
row,Sequence,polyreactivity (PSR sort gate)
1,QVQLVESGGGLVQAGGILRLSCAASGYIFVRNAMGWYRQAPGKERELVAAISGSGGSTYYADSVKGRFTISRDNAKNTVYLQMNRLKPEDTEVYYCAADYATVTWRGIAYDYWGQGTQVTVSS,low polyreactivity
2,QVQLVESGGGLVQAGGILRLSCAATGTTFSYYPMGWYRQAPGKERELVAAITNGGSTYYADSVKGRFTISRDNAKNTVYLQMNSLKPEDTAVYYCAADVSYWPYARYQRYPRYDYWGQGTQVTVSS,low polyreactivity
3,QVQLVESGGGLVQAGGILRLSCASSGITFRQYAMEWYRQAPGKERELVATITSRGGSTYYADSVKGRFTISRDNAKNSVYLQMISLKPEDTADYYCAAKTPTKDRGSDFDYWGQCTQVTVSS,high polyreactivity
4,QVQLVESGGGLVQAGGILRLSCASSGSICYWYAMGWYRQAPGKERELVASITGGGSKKYAESLKGRFTISRDNANNSVYLQINSLKREDTAVYYCAARYGQPWGSRYYYWGQVTQVTVSS,high polyreactivity
5,QVQLVESGGGLVQAGGILRLSCDASGSTFVLYAMGWYRQAPGKERELVAAIRKSGGSTYYADSVKGRFTISRDNAKIYVYLQMNSLKPEDTAVYYCNATNYIYEYHYWGQGTQVTVSS,low polyreactivity
6,QVQLVESGGGLVQAGGILRLSFAASGRIFTHYAMAGYRPAPGKERELVAAIRYSGGRTYYADSVKGRFTLSRDNAKNTVYLQMNSRKPEDTAVYYCAAEGFGGSFRSFYTIYDYWGQGTLVTVSS,high polyreactivity
7,QVQLVESGGGLVQAGGILRLSSDTSRSIFSTNGMGWYRPAHGKERELVAAMSTGGRKYYADSVKVRFTISRDNAKNTVYLQMNSLIPEDSAVFYCAIDHWTTSYDEGYYWGQGTQVTVSW,low polyreactivity
8,QVQLVESGGGLVQAGGILRLSWAASGSTFTAYAMGWYRQAPGKERELVAAINTSGGNTYYADSVKGRFTISRDNAKNTVYFQMNSLKPEDTAVYYCAADYKARYSEKFDYWGQGTQVSVSS,low polyreactivity
9,QVQLVESGGGLVQAGGILRLTCAASGRIFIYYAMGWYRQAPGKERELVAAISWGGGRTYYADSVKGRFTISRDNAKNTVYLQMNSLKPEDTAVYNCAAGVYTGQHEYDYWGQGTQVTVSS,low polyreactivity
10,QVQLVESGGGLVQAGGILSLSSAAYGRISVFYTMGWYIQAPGKERELVAVIRTAGGRTKYADSVKGRFTISRDNAKNTVYLQMNSLKPEDTAVYYCADRVVRYGYKYYYWGQGTQVTVSS,low polyreactivity
11,QVQLVESGGGLVQAGGNLRLSCAASGFIFTRYAMGWYRPAPGKERELVAAISTSGDRTYYADSVKGRFTISRDNAKNTVYVQMHSLKPEDTAVYFCAVVRRRSVGRYVYWGQGTQVTVSS,high polyreactivity
12,QVQLVESGGGLVQAGGRHRLSCAASGRTFWGYGMGWYRQPPGKDRELVATISSGGSTYYEDSVKGRFTISRDNAMNTVYLQMNSLKPEDTAVYYCAARPPRSYWRYQSDYWGLGTQVTVSS,high polyreactivity
13,QVQLVESGGGLVQAGGRIRLSCAASGSTYGLNAMGWYRQDPGNEREMVAAITFISGSTNYADSVKGRFSISRDNAKNTVYLQMNSLKPEDTAVYYCAGDSVYYAGYDDDYWGLGTQVTVSS,low polyreactivity
14,QVQLVESGGGLVQAGGRLGLSCAASGRSFPWYTMGWYRQATGKERELVAAISSSGSTTYYADSVNGRFTISRDNAKITVYLQMNSLKPEDTAVYYCNKADPPEYDYWGQGTPVTVSS,high polyreactivity
15,QVQLVESGGGLVQAGGRLLLICAASGRIFIANAMGWYSKAPGKERELVATISRSGVSTNYADSVKVRFTISRDNAKNSVYLQMNSLKPEDTAVYYCADIRSGGQGQGYGYWGQVTQVTVSS,high polyreactivity
16,QVQLVESGGGLVQAGGRLPLSCAASGSTYSVNAMGWYRQAPGKERELVAAITRSGGSTYYADSVKGRFTISRDNAKNTVYLQMNSLNPEDTAVYYCAAEIYPLGEYWGQGTQVTVSS,low polyreactivity
17,QVQLVESGGGLVQAGGRLRFSCAASGSTIRRKAMGWSRQAPGKERELVARISYRGGSTYYADSVKGRFTSSRDNAKNTVYLQMNSLKPEATAVYYCAAPVYGVPEYDYWGQGPQVTVSS,low polyreactivity
18,QVQLVESGGGLVQAGGRLRISCAASGSIFEINAMGWYRQAPGKERELVAAITGSGGSTHYADSVKGRFPISRDNAKNTVYLQMNCLKPEDTAVYYCAAVPRYQYGYLGQGTQVTVSS,low polyreactivity
19,QVQLVESGGGLVQAGGRLRISSAASGRIFAYYAMGWYRQAPGKERELVAANTTNGGGTYYADSVKGRFTISRDNAKNTVSLQMNSLNPEDPAFYYCATQFEGPAGFNNWGQGTQVTVSS,low polyreactivity
20,QVQLVESGGGLVQAGGRLRLRCAASGFIFSIYTMGWYRQAPGKERELVAAISWSGGSKYYADSVKGRFTISRDNAKNTVYLQMNSLKPEDTAVYYCNRVQFSPVYRFREYDYWGQGTQVTVSS,high polyreactivity
21,QVQLVESGGGLVQAGGRLRLSCAASGFIFKYNAMGWSRQAPGKERELVAAISRGGRTYYADSVKGRFTISRDNAKNTVYLQMNSLKPEDTAVYYCAAVSHYPAGYDYWGQGTQVTVSS,high polyreactivity
22,QVQLVESGGGLVQAGGRLRLSCAASGFIVDDNTIGWYRQAPGKEREVFAAISYSAGSTYYADSVKGRFTISRDNAKNTVYFQLNSLKPEDTAVYYCAAQHYWVTCYLSSYDYWGQGTQVSVSS,low polyreactivity

row,Sequence,polyreactivity (PSR sort gate)
1,QVQLVESGGGLVQAGGRLRLSCAASGFTFPWYTMGWYRQAPGKERELVAAISRSGGSTYYADSVKGRFTISRDNAKNTVYLQLNSLKPEDTAVYYCAAEQTRWPDITRYDYWGQGTQVTVSS,high polyreactivity
2,QVQLVESGGGLVQAGGRLRLSCAASGFTFSRNAMGWYRQAPGKERELVAAITASTSRTYYADSVKGRFTISRDNAKNTVYLQMTSLKQEDSAVYYCNAGRPGRGPYGYWGQGTQVTVSS,high polyreactivity
3,QVQLVESGGGLVQAGGRLRLSCAASGFTFSYNTMGWYRQEPGKERELVAAITGDVSTNYADSVKGRFTISRDNAKNTVYLQMNSVKPEDTAVYYCAARPNFPGYEDLSVDYDYWGQGTQVTVSS,low polyreactivity
4,QVQLVESGGGLVQAGGRLRLSCAASGFTFWRNAMGWYRQAPGKERELVAAISRRGGNTYYADSVKGRFTISRDNAKNCVYLQMNSLKPEDTAVYYCAADYSYYYGYDYWGQGTQVTVSS,high polyreactivity
5,QVQLVESGGGLVQAGGRLRLSCAASGFTVSYYGMGWSRQAPGKERELVATISSSGSTNYADSVKGRFTISRDNAKNSVYLQMNSLKPEDTAVYYCATDYADAGYYTTFDYWGQGTQVTVSS,high polyreactivity
6,QVQLVESGGGLVQAGGRLRLSCAASGFTYPEYAMGWYRQAPGKEMELVAAIDSGDGSTYYADSVKGRFTISRDNAKNTVYLQMISLKPEDTAVYYCATDRYPHSATPGDYWGQGTQVTVSS,low polyreactivity
7,QVQLVESGGGLVQAGGRLRLSCAASGFYLNAMGWYRQAPGKDRELVATITSSATNTYYADSVKGRFTISRDNAKNTVYLQMNSLKPEDTAVYYCNARYTSHTLADGVYLYDYWGQGTQVTVSS,low polyreactivity
8,QVQLVESGGGLVQAGGRLRLSCAASGGIFESYAMGWYRQAPGKERELVATITGSGGNTYYADSVKGRFTISRDNAKNTVYLQMNSLKPEDTAVYYCAADTYITPHYLPLLYFLMEYWGQGTQVTVSS,low polyreactivity
9,QVQLVESGGGLVQAGGRLRLSCAASGGTFYLNAMGWYRQAPGKERELVAAISGSGTSTYYADSVKGRFTISRDNAKNTVYLQMNSLKPEDTAVYYCAADGTYFYIYLGDRFDYWGQGTQVTVSS,low polyreactivity
10,QVQLVESGGGLVQAGGRLRLSCAASGIFGYNALGWYRQAPGKERELVAAITSSGTSTYYADSVKGRFTISRDNAKNTVYLQMNSLKPEDTAVYYCAALHSGTWTGYGYWGQGTQVTVSS,low polyreactivity
11,QVQLVESGGGLVQAGGRLRLSCAASGIIFFWYVRGWYRQAPGKERELVAAINRGGITNYADSVKGRFTISRDNAKNTVYLQMNSLKTEDTAVYYCNKDWKTESWFNRYGGYGIEDDYWGQGTQVTVSS,high polyreactivity
12,QVQLVESGGGLVQAGGRLRLSCAASGIIFGTYAMGWYRPAPGQERELVAAINTGGTTYYADSVKGRFTISRDNAKNTVYLQMNSLKPEDTAVYYCAAEFTRYRYYYHKRPMDYWGQGTQVTVSS,low polyreactivity
13,QVQLVESGGGLVQAGGRLRLSCAASGIIFPRYMGWYRQAPGKERELVAAIRWSSDDTNYADSVKGRFTISRDNAKNTVYLQMNSLKPEDTAVYYCAAHSYYDRTIQFEFSARTYDYWGQGTQVTVSS,low polyreactivity
14,QVQLVESGGGLVQAGGRLRLSCAASGIIFQYNAMGWYRQAPGKEREFVAAISYGGTSTYYADSVKGRFTISRDNAKNTVYLQMNSLKPEDTAVYYCAADYQGYTPSDGRYYWGQGTQVTVSS,low polyreactivity
15,QVQLVESGGGLVQAGGRLRLSCAASGIIVGLYTMGWYRQARGKERELVAAISDSGGRTYYADSVKGRFTISRDNVKNTVYLQMNSLKPEDTAVYYCATRWPHYGGYYYWGQGTQVTVSS,high polyreactivity
16,QVQLVESGGGLVQAGGRLRLSCAASGINLGRYAMGWYRQAPGKERELVASISWSGGSTYYADSVKGRFTISRDNAKNTVYLQMNSLIPEDPAVYYCAATYWKSRYGVRGYPFGYWGQGTQVTVSS,high polyreactivity
17,QVQLVESGGGLVQAGGRLRLSCAASGITFQPNAMGWYRQAPGKERELVARITRGGGRTYYADSVKGRFTISRDNAKNTVYLLMHSLKPEDTAVYYCAADYSYIYGFDYWGQGTQVTVSS,low polyreactivity
18,QVQLVESGGGLVQAGGRLRLSCAASGITFRWYAMGWYRQAPGKERELVAAITTSGDSTYYADSVKGRFTISRDNAKNTVYLQMNSLKPEDTAVNYCAAKYQSLRTYGYGFDYWGQGTQVTVSS,high polyreactivity
19,QVQLVESGGGLVQAGGRLRLSCAASGITFSYYAMGRYRQAPGKERELVAAISSGGRTYYADSVKGRFTISRDNAKNTVYLQMNSLKQEDTAVYYCAASFLVTSREYDYWGQGTQVTVSS,high polyreactivity
20,QVQLVESGGGLVQAGGRLRLSCAASGITFWSNALGWYRQAPGKERELVAAMTSGGNTNYADSVKGRFTISRDNAKNTVYLQMNSLKPEDTAVYYCATKQLLRRRQGYYWVGSKHDYWGQGTQVTVSS,high polyreactivity
21,QVQLVESGGGLVQAGGRLRLSCAASGLIFTWNAMGWYRQAPGKERELVAAISTGGSTSYADSVKGRFTISRDNAMNTVYLQMNSMKPEDTAVYYCARDSSIWSHGSWYDYWGQGTQVTVSS,low polyreactivity
